Measurements taken from patent US20200249231.

Experiments:
[1] = molecular target: T1, AYRTK (5-mer on peptide array)
T1 chain: AYRTK

[2] = molecular target: T2, DWYLQ (5-mer on peptide array)
T2 chain: DWYLQ

[3] = molecular target: T3, DYFLQ (5-mer on peptide array)
T3 chain: DYFLQ

[4] = molecular target: T4, DYWLQ (5-mer on peptide array)
T4 chain: DYWLQ

[5] = molecular target: T5, EWALQ (5-mer on peptide array)
T5 chain: EWALQ

[6] = molecular target: T6, EWIAQ (5-mer on peptide array)
T6 chain: EWIAQ

[7] = molecular target: T7, EYALQ (5-mer on peptide array)
T7 chain: EYALQ

[8] = molecular target: T8, EYFLQ (5-mer on peptide array)
T8 chain: EYFLQ

[9] = molecular target: T9, EYVLQ (5-mer on peptide array)
T9 chain: EYVLQ

[10] = molecular target: T10, EYWLQ (5-mer on peptide array)
T10 chain: EYWLQ

[11] = molecular target: T11, FRQRQ (5-mer on peptide array)
T11 chain: FRQRQ

[12] = molecular target: T12, FYESK (5-mer on peptide array)
T12 chain: FYESK

[13] = molecular target: T13, FYKYK (5-mer on peptide array)
T13 chain: FYKYK

[14] = molecular target: T14, LRYRQ (5-mer on peptide array)
T14 chain: LRYRQ

[15] = molecular target: T15, NYRFK (5-mer on peptide array)
T15 chain: NYRFK

[16] = molecular target: T16, PRYRQ (5-mer on peptide array)
T16 chain: PRYRQ

[17] = molecular target: T17, QRQRQ (5-mer on peptide array)
T17 chain: QRQRQ

[18] = molecular target: T18, QRQTR (5-mer on peptide array)
T18 chain: QRQTR

[19] = molecular target: T19, RFSQR (5-mer on peptide array)
T19 chain: RFSQR

[20] = molecular target: T20, RWKFK (5-mer on peptide array)
T20 chain: RWKFK

[21] = molecular target: T21, RYRSK (5-mer on peptide array)
T21 chain: RYRSK

[22] = molecular target: T22, RYSKY (5-mer on peptide array)
T22 chain: RYSKY

[23] = molecular target: T23, RYSYK (5-mer on peptide array)
T23 chain: RYSYK

[24] = molecular target: T24, Thermus thermophilus SlyD FKBP domain with grafted KalbTG Q-tag RYRQR, 8xHis
T24 chain: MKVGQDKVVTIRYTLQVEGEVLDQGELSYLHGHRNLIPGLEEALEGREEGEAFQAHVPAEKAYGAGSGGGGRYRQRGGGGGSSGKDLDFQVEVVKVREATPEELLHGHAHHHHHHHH

[25] = molecular target: T25, VRYRQ (5-mer on peptide array)
T25 chain: VRYRQ

[26] = molecular target: T26, WQRQR (5-mer on peptide array)
T26 chain: WQRQR

[27] = molecular target: T27, WYALQ (5-mer on peptide array)
T27 chain: WYALQ

[28] = molecular target: T28, YKGRG (5-mer on peptide array)
T28 chain: YKGRG

[29] = molecular target: T29, YKSWK (5-mer on peptide array)
T29 chain: YKSWK

[30] = molecular target: T30, YKYKY (5-mer on peptide array)
T30 chain: YKYKY

[31] = molecular target: T31, YKYNK (5-mer on peptide array)
T31 chain: YKYNK

[32] = molecular target: T32, YKYRQ (5-mer on peptide array)
T32 chain: YKYRQ

[33] = molecular target: T33, YQKWK (5-mer on peptide array)
T33 chain: YQKWK

[34] = molecular target: T34, YQRQR (5-mer on peptide array)
T34 chain: YQRQR

[35] = molecular target: T35, YRQRA (5-mer on peptide array)
T35 chain: YRQRA

[36] = molecular target: T36, YRQSR (5-mer on peptide array)
T36 chain: YRQSR

[37] = molecular target: T37, YRQTR (5-mer on peptide array)
T37 chain: YRQTR

[38] = molecular target: T38, YRYAK (5-mer on peptide array)
T38 chain: YRYAK

[39] = molecular target: T39, YRYRQ (5-mer on peptide array)
T39 chain: YRYRQ

Z-[GGGARSKLGGGG] = molecular target: T40, Z-[GGGARSKLGGGG]
T40 chain: GGGARSKLGGGG

Z-[GGGFRQRGGGGG] = molecular target: T41, Z-[GGGFRQRGGGGG]
T41 chain: GGGFRQRGGGGG

Z-[GGGFRQRQGGGG] = molecular target: T42, Z-[GGGFRQRQGGGG]
T42 chain: GGGFRQRQGGGG

Z-[GGGMLAQGSGGG] = molecular target: T43, Z-[GGGMLAQGSGGG]
T43 chain: GGGMLAQGSGGG

Z-[GGGQRQRQGGGG] = molecular target: T44, Z-[GGGQRQRQGGGG]
T44 chain: GGGQRQRQGGGG

Z-[GGGRQRQRGGGG] = molecular target: T45, Z-[GGGRQRQRGGGG]
T45 chain: GGGRQRQRGGGG

Z-[GGGRYGKSGGGG] = molecular target: T46, Z-[GGGRYGKSGGGG]
T46 chain: GGGRYGKSGGGG

Z-[GGGRYRQRGGGG] = molecular target: T47, Z-[GGGRYRQRGGGG]
T47 chain: GGGRYRQRGGGG

Z-[GGGRYRSKGGGG] = molecular target: T48, Z-[GGGRYRSKGGGG]
T48 chain: GGGRYRSKGGGG

Z-[GGGYKGRGGGGG] = molecular target: T49, Z-[GGGYKGRGGGGG]
T49 chain: GGGYKGRGGGGG

Z-[GGGYKYRQGGGG] = molecular target: T50, Z-[GGGYKYRQGGGG]
T50 chain: GGGYKYRQGGGG

Z-[GGGYRYRQGGGG] = molecular target: T51, Z-[GGGYRYRQGGGG]
T51 chain: GGGYRYRQGGGG

B1: Kutzneria albida microbial transglutaminase, activated enzyme (KalbTGt3) (protein)
chain: APLAPPLAEDRSYRTWRVEDYVEAWERYHGREMTEDERENLARGCIGVTVVNLNREDLSNPPLNLSFGSLRTAEAVQAALNKIVDTHPSPAQYEAAVAKDPILKRLKNVVKALPSWIDSAKLKASIFSKRFYSWQNPDWSEERAHTTYRPDRETDQVDMSTYRYRARPGYVNFDYGWFDQDTNTWWHANHEEPRMVVYQSTLRHYSRPLQDFDEQVFTVAFAKKDGGGSGHHHHHHHH
Array signal (log2) [1]: 12.6 log2 | 5-mer peptide array signal with KalbTG [2]: exhibited relatively lower signal on the KalbTG array | 5-mer peptide array signal with KalbTG [3]: exhibited relatively lower signal on the KalbTG array | 5-mer peptide array signal with KalbTG [4]: exhibited relatively lower signal on the KalbTG array | 5-mer peptide array signal with KalbTG [5]: exhibited relatively lower signal on the KalbTG array | 5-mer peptide array signal with KalbTG [6]: exhibited relatively lower signal on the KalbTG array | 5-mer peptide array signal with KalbTG [7]: exhibited relatively lower signal on the KalbTG array | 5-mer peptide array signal with KalbTG [8]: exhibited relatively lower signal on the KalbTG array | 5-mer peptide array signal with KalbTG [9]: exhibited relatively lower signal on the KalbTG array | 5-mer peptide array signal with KalbTG [10]: exhibited relatively lower signal on the KalbTG array | 5-mer peptide array, incorporation of biotinylated amine donor [11]: the top 22 glutamine-donor substrates identified on the 5-mer peptide array with KalbTG | Array signal (log2) [11]: 8.93 log2 | 5-mer peptide array, incorporation of biotinylated glutamine donor Z-APRYRQRAAGGG-PEG-biotin [12]: the top 17 lysine-donor substrates identified on the 5-mer peptide array with KalbTG | 5-mer peptide array, incorporation of biotinylated glutamine donor Z-APRYRQRAAGGG-PEG-biotin [13]: the top 17 lysine-donor substrates identified on the 5-mer peptide array with KalbTG | 5-mer peptide array, incorporation of biotinylated amine donor [14]: the top 22 glutamine-donor substrates identified on the 5-mer peptide array with KalbTG | 5-mer peptide array, incorporation of biotinylated glutamine donor Z-APRYRQRAAGGG-PEG-biotin [15]: the top 17 lysine-donor substrates identified on the 5-mer peptide array with KalbTG | 5-mer peptide array, incorporation of biotinylated amine donor [16]: the top 22 glutamine-donor substrates identified on the 5-mer peptide array with KalbTG | 5-mer peptide array, incorporation of biotinylated amine donor [17]: the top 22 glutamine-donor substrates identified on the 5-mer peptide array with KalbTG | Array signal (log2) [17]: 8.77 log2 | 5-mer peptide array, incorporation of biotinylated amine donor [18]: the top 22 glutamine-donor substrates identified on the 5-mer peptide array with KalbTG | 5-mer peptide array, incorporation of biotinylated amine donor [19]: the top 22 glutamine-donor substrates identified on the 5-mer peptide array with KalbTG | 5-mer peptide array, incorporation of biotinylated glutamine donor Z-APRYRQRAAGGG-PEG-biotin [20]: the top 17 lysine-donor substrates identified on the 5-mer peptide array with KalbTG | Array signal (log2) [21]: 12.4 log2 | 5-mer peptide array, incorporation of biotinylated glutamine donor Z-APRYRQRAAGGG-PEG-biotin [22]: the top 17 lysine-donor substrates identified on the 5-mer peptide array with KalbTG | Array signal (log2) [22]: 12.8 log2 | 5-mer peptide array, incorporation of biotinylated glutamine donor Z-APRYRQRAAGGG-PEG-biotin [23]: the top 17 lysine-donor substrates identified on the 5-mer peptide array with KalbTG | labeling yield with KalbTG K-tag-Cy3 (SDS-PAGE, in-gel fluorescence) [24]: approximately 70% yield of a labeled protein species after 15 minutes | 5-mer peptide array, incorporation of biotinylated amine donor [25]: the top 22 glutamine-donor substrates identified on the 5-mer peptide array with KalbTG | 5-mer peptide array, incorporation of biotinylated amine donor [26]: the top 22 glutamine-donor substrates identified on the 5-mer peptide array with KalbTG | 5-mer peptide array signal with KalbTG [27]: exhibited relatively lower signal on the KalbTG array | Array signal (log2) [28]: 12.2 log2 | 5-mer peptide array, incorporation of biotinylated glutamine donor Z-APRYRQRAAGGG-PEG-biotin [29]: the top 17 lysine-donor substrates identified on the 5-mer peptide array with KalbTG | 5-mer peptide array, incorporation of biotinylated glutamine donor Z-APRYRQRAAGGG-PEG-biotin [30]: the top 17 lysine-donor substrates identified on the 5-mer peptide array with KalbTG | 5-mer peptide array, incorporation of biotinylated glutamine donor Z-APRYRQRAAGGG-PEG-biotin [31]: the top 17 lysine-donor substrates identified on the 5-mer peptide array with KalbTG | 5-mer peptide array, incorporation of biotinylated amine donor [32]: the top 22 glutamine-donor substrates identified on the 5-mer peptide array with KalbTG | Array signal (log2) [32]: 8.7 log2 | 5-mer peptide array, incorporation of biotinylated glutamine donor Z-APRYRQRAAGGG-PEG-biotin [33]: the top 17 lysine-donor substrates identified on the 5-mer peptide array with KalbTG | 5-mer peptide array, incorporation of biotinylated amine donor [34]: the top 22 glutamine-donor substrates identified on the 5-mer peptide array with KalbTG | 5-mer peptide array, incorporation of biotinylated amine donor [35]: the top 22 glutamine-donor substrates identified on the 5-mer peptide array with KalbTG | 5-mer peptide array, incorporation of biotinylated amine donor [36]: the top 22 glutamine-donor substrates identified on the 5-mer peptide array with KalbTG | 5-mer peptide array, incorporation of biotinylated amine donor [37]: the top 22 glutamine-donor substrates identified on the 5-mer peptide array with KalbTG | 5-mer peptide array, incorporation of biotinylated glutamine donor Z-APRYRQRAAGGG-PEG-biotin [38]: the top 17 lysine-donor substrates identified on the 5-mer peptide array with KalbTG | 5-mer peptide array, incorporation of biotinylated amine donor [39]: the top 22 glutamine-donor substrates identified on the 5-mer peptide array with KalbTG | Array signal (log2) [39]: 8.99 log2 | Reaction Rate in Solution (pmol s^-1), GLDH-coupled assay with 200 µM glutamine donor (Z-[GGGARSKLGGGG]): 3.87 pmol/s | Reaction rate in solution (pmol/s), GLDH-coupled assay (Z-[GGGFRQRGGGGG]): 2.11 pmol/s | Reaction rate in solution (pmol/s), GLDH-coupled assay (Z-[GGGFRQRQGGGG]): 3.07 pmol/s | GLDH-coupled activity assay (Z-[GGGMLAQGSGGG]): KalbTG exhibited no activity with preferred S. mobaraensis MTG substrates DYALQ (SEQ ID NO: 22) and MLAQG (SEQ ID NO: 13) | Reaction rate in solution (pmol/s), GLDH-coupled assay (Z-[GGGMLAQGSGGG]): -0.11 pmol/s | Reaction rate in solution (pmol/s), GLDH-coupled assay (Z-[GGGQRQRQGGGG]): 2.98 pmol/s | Reaction rate in solution (pmol/s), GLDH-coupled assay (Z-[GGGRQRQRGGGG]): 2.06 pmol/s | Reaction Rate in Solution (pmol s^-1), GLDH-coupled assay with 200 µM glutamine donor (Z-[GGGRYGKSGGGG]): 2.66 pmol/s | Reaction rate in solution (pmol/s), GLDH-coupled assay (Z-[GGGRYRQRGGGG]): 3.6 pmol/s | Reaction Rate in Solution (pmol s^-1), GLDH-coupled assay with 200 µM glutamine donor (Z-[GGGRYRSKGGGG]): 3.26 pmol/s | Reaction Rate in Solution (pmol s^-1), GLDH-coupled assay with 200 µM glutamine donor (Z-[GGGYKGRGGGGG]): 3.01 pmol/s | Reaction rate in solution (pmol/s), GLDH-coupled assay (Z-[GGGYKYRQGGGG]): 4 pmol/s | KM (Z-[GGGYRYRQGGGG]): 2150 µM | Reaction rate in solution (pmol/s), GLDH-coupled assay (Z-[GGGYRYRQGGGG]): 3.52 pmol/s | Vmax (Z-[GGGYRYRQGGGG]): 73.2 pmol/s | kcat (Z-[GGGYRYRQGGGG]): 1.92 s⁻¹ | kcat/KM (Z-[GGGYRYRQGGGG]): 890 M⁻¹ s⁻¹
